Key:
[1] = target: T1, Cy.002 Fab:CyRPA complex, formed beforehand and purified by SEC (Plasmodium falciparum (3D7 clone) | …, UniProt Q8IFM8 29-362); assay: SPR; PBS+P20
[2] = target: Cy.003 Fab:CyRPA complex, formed beforehand and purified by SEC (Plasmodium falciparum (3D7 clone) | …, UniProt Q8IFM8 29-362); assay: SPR; PBS+P20
[3] = target: Cy.007 Fab:CyRPA complex, formed beforehand and purified by SEC (Plasmodium falciparum (3D7 clone) | …, UniProt Q8IFM8 29-362); assay: SPR; PBS+P20
[4] = target: T1, Cy.002 Fab:CyRPA complex, formed …; assay: SPR; TBS+P20, 1 mM CaCl2
[5] = target: Cy.004 Fab:CyRPA complex, formed beforehand and purified by SEC (Plasmodium falciparum (3D7 clone) | …, UniProt Q8IFM8 29-362); assay: SPR; TBS+P20, 1 mM CaCl2
[6] = target: Cy.009 Fab:CyRPA complex, formed beforehand and purified by SEC (Plasmodium falciparum (3D7 clone) | …, UniProt Q8IFM8 29-362); assay: SPR; TBS+P20, 1 mM CaCl2

Binder | Kd [1] [nM] | koff [1] [s⁻¹] | Kd [2] [nM] | Kd [3] [nM] | Kd [4] [nM] | koff [4] [s⁻¹] | Kd [5] [nM] | Kd [6] [nM]
Cy.009, chimeric anti-CyRPA monoclonal antibody (chicken variable domains, human IgG1) (antibody, V domains shown) VH: AVTLDESGGGLQTPGGALSLVCKASGFTFSDYAMGWVRQAPGKGLEYVAGIKSDGSFTLYGSTVKGRATISRDNGQSIVRLQLNNLRAEDTGTYYCAKSDDNGGHYSDFSGEIDAWGHGTEVIVSS VL: RCALTQPSSVSANPGETVKITCSGSSYSYGWYQQKSPGSAPVTVIYYNDKRPSDIPSRFSGSKSGSTGTLTITGVQAEDEAVYFCGNSDSRNAAFGAGTTLTVL | 1500 | 0.17 | 260 | 2100 |  |  |  | 
Cy.004, chimeric anti-CyRPA monoclonal antibody (chicken variable domains, human IgG1) (antibody, V domains shown) VH: AVTLDESGGGLQTPGGALSLVCKASGFDFSSYAMGWVRQAPGKGLEYVAGIRNDGSFTLYTPAVKGRATISRDNGQSTVRLQLNNLRAEDTATYFCTKSADDGGHYSDFSGEIDAWGHGTEVIVSS VL: RCALTQPSSVSANPGETVKITCSGSTYNYGWYQQKSPGSAPVTVIYYNDKRPSDIPSRFSGSKSGSTGTLTITGVQAEDEAVYYCGNSDSRNVAFGAGTTLTVL | 1800 | 0.39 | 410 | 390 |  |  |  | 
Cy.007, chimeric anti-CyRPA monoclonal antibody (chicken variable domains, human IgG1) (antibody, V domains shown) VH: AVTLDESGGGLQTPGGTLSLVCKGSGFTFSSYEMQWVRQAPGKGLEWVADICIGGSYTGYGPAVKGRATISRDDGQSTVRLQLNNLRAEDTGTYYCAKTARSDYCITGLDDIDAWGHGTEVIVSS VL: RCALTQPSSVSANPGETVKITCSGGSSDYGWYQQKSPGSAPVTVIYENNKRPSDIPSRFSGSKFGSTHTLTITGVQADDEAVYFCGSRDTNNGAFGAGTTLTVL |  |  |  |  | 11 | 0.0024 | 1.6 | 2.6
Cy.003, chimeric anti-CyRPA monoclonal antibody (chicken variable domains, human IgG1) (antibody, V domains shown) VH: AVTLDESGGGLQTPGGALSLVCKGSGFFSFSSYTMQWVRQAPGKGLEWVASISSGGGTNYGAAVKGRATISRDNGQSTLRLQLNNLRAEDTGTYYCAKHGVNGCDWSYSVGCVDAWGHGTEVIVSS VL: RCALTQPSSVSANPGETVKITCSGGSSSYYGWYQQKSPGSAPVTLIYNNQKRPSDIPSRFSGSKSGSTGTLTITGVQAEDEAVYFCGSRDNSGGIFGAGTTLTVL |  |  |  |  | 77 | 0.0048 | 13 | 8.6

— article PMC8854392 (2022)
